This passage reports Kd results from paper PMC4164303 (Science (New York, N.Y.), 2014).

This data set concerns the molecule itself. The experiment in a line: AUC.

B1: EC1–2 of mouse E-cadherin (domain or fragment)
chain: DWVIPPISCPENEKGEFPKNLVQIKSNRDKETKVFYSITGQGADKPPVGVFIIERETGWLKVTQPLDREAIAKYILYSHAVSSNGEAVEDPMEIVITVTDQNDNRPEFTQEVFEGSVAEGAVPGTSVMKVSATDADDDVNTYNAAIAYTIVSQDPELPHKNMFTVNRDTGVISVLTSGLDRESYPTYTLVVQAADLQGEGLSTTAKAVITVKD
In the case of B1, the Kd (in general, the constant that tells how readily two partners part at equilibrium) was about 175 µM.
